Measurements from PMC13370731.
Values joined by “and” are separate entries in the source; they are usually repeats but may differ in a detail not shown here. Equal entries are not always repeated.

Tests used:
[1] = biological target: soluble domain of the MtrA subunit (M1 – S168), strep‐tagged, RED‐labeled (Methanosarcina mazei Gö1) (UniProt O59640); assay: MST; 20 nM RED‐labeled strep‐MtrA with MtrR‐His6 in 16 concentrations (calculated on monomeric molecular mass); standard capillaries, 100% excitation power, medium MST power; MO.AFFINITY analysis; two biological replicates
UniProt O59640, sequence (O59640 1-168): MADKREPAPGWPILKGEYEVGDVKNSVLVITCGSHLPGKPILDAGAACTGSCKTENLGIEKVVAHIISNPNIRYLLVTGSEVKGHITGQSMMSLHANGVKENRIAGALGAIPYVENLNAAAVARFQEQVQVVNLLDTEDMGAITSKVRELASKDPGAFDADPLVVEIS

[2] = biological target: MtrR‐His6 (small protein MtrR with a C‐terminal His‐tag, heterologously expressed in Escherichia coli) (Methanosarcina mazei Gö1); assay: SEC; IMAC‐purified MtrR‐His6 on an Enrich SEC 70 column, detection at 214 nm, calibrated with a standard protein mixture; phosphate buffer (50 mM sodium phosphate, 300 mM NaCl, pH 8.0); peaks at 10 and 13 mL

In the case of “MtrR‐His6 (small protein MtrR with a C‐terminal His‐tag, heterologously expressed in Escherichia coli) (natural protein)”, the Kd [1] is reported as 110 nM and the stoichiometry N [2] is reported as 2 and < 6.
